Assay results as given in PMC11444770, “Moesin contributes to heat shock gene response through direct binding to the Med15 subunit of the Mediator complex in the nucleus” (Open Biology, 2024).

B1: GST-Med17 (natural protein, Drosophila melanogaster, UniProt Q9VEC1 1-642, looked up)
chain: MSNSVNISVETTCENQIREIGYDGTELYQPPPTLSESLAKCAARIDFSKTSLDDLKKEEKSAAAAADEDKDATQFQESLWPWDAVRNKLKDALTEICVLSDVISIAKDKRYLVLDPLLEEADDTKPIVQVYSRKKAISQAAQVLLSGAERLRNAHSEQRNRNVSDFHIELLRLRQNWRLKKVSNAIIGDLSYRTAGSKFGMSGTFEVTKAEETGDEDTASSSNSSSSVSGNNGMQLKASSALRVIVPAELQGVAYIKVITQKDQEDLCTAQLNLMGHGPNITAQVGVWQKTLEFAQNVLFCKELFAQLAREAIQLQAPIPHVVIGNQIRATLLPNIQLIISLCHSTTFDSSQPAPINDHDHVLEHSLHQLLREVHYKNSHHPFPHPASAPLGPTKKRMLAGPMAADRETLLDMTKSQTILEQIIAQAQHIFMRKRTQYVLDTLARDVKDPQIVSHWNAMNSPTMSCVKINIVTHGYDAIGRTSLVIHVKERSLKCICRDGRVMRLSYEPQELRDLILCQINSHQISCLISLARCMSWTVLSNSNHLGIGKVEPLGNASSCLLASPNSDRMIAVQIRCDPQIDVKVYIARSPRQDFFPSPLVPEKLWENLGGTFKEVRFDKIEGKSFLNKMEFLMASLTSNTA
notes: Med17, Drosophila Mediator subunit; CDS amplified with the primers Med17 pGex6P-1 Fw/Rev (start to stop codon) and cloned into pGex6P-1; source: E. coli SixPack, purified on Glutathione Sepharose 4B, kept on the beads; not shown: GST, N-terminal, kept
B2: 6xHis-FERM-Moe (domain or fragment, Drosophila melanogaster, UniProt P46150 1-484, looked up)
chain: MSPKALNVRVTTMDAELEFAIQSTTTGKQLFDQVVKTIGLREVWFFGLQYTDSKGDSTWIKLYKKVMNQDVKKENPLQFRFRAKFYPEDVAEELIQDITLRLFYLQVKNAILTDEIYCPPETSVLLASYAVQARHGDHNKTTHTAGFLANDRLLPQRVIDQHKMSKDEWEQSIMTWWQEHRSMLREDAMMEYLKIAQDLEMYGVNYFEIRNKKGTDLWLGVDALGLNIYEQDDRLTPKIGFPWSEIRNISFSEKKFIIKPIDKKAPDFMFFAPRVRINKRILALCMGNHELYMRRRKPDTIDVQQMKAQAREEKNAKQQEREKLQLALAARERAEKKQQEYEDRLKQMQEDMERSQRDLLEAQDMIRRLEEQLKQLQAAKDELELRQKELQAMLQRLEEAKNMEAVEKLKLEEEIMAKQMEVQRIQDEVNAKDEETKRLQDEVEDARRKQVIAAEAAAALLAASTTPQHHHVAEDENENEEELT
notes: Drosophila Moesin, amino acids 1-484 (FERM-Moe); The methods say C-terminal 6xHis tagging in pDEST17, while the label 6xHis-FERM-Moe puts the tag first; as far as I recall pDEST17 adds an N-terminal His tag; also called 6xHis-tagged FERM-Moesin; source: E. coli, purified (HisPur Cobalt Resin or Ni-NTA beads); not shown: 6xHis, C-terminal, kept
B3: GST-FERM-Moesin (domain or fragment, Drosophila melanogaster, UniProt P46150 1-484, looked up)
chain: B2 chain
notes: pGex6P-1 vector; also called GST-Moesin; source: E. coli SixPack, purified on Glutathione Sepharose 4B, kept on the beads; not shown: GST, N-terminal, kept
B4: 6xHis-Hsf (natural protein, Drosophila melanogaster, UniProt P22813 1-691, looked up)
chain: MSRSRSSAKAVQFKHESEEEEEDEEEQLPSRRMHSYGDAAAIGSGVPAFLAKLWRLVDDADTNRLICWTKDGQSFVIQNQAQFAKELLPLNYKHNNMASFIRQLNMYGFHKITSIDNGGLRFDRDEIEFSHPFFKRNSPFLLDQIKRKISNNKNGDDKGVLKPEAMSKILTDVKVMRGRQDNLDSRFSAMKQENEVLWREIASLRQKHAKQQQIVNKLIQFLITIVQPSRNMSGVKRHVQLMINNTPEIDRARTTSETESESGGGPVIHELREELLDEVMNPSPAGYTAASHYDQESVSPPAVERPRSNMSISSHNVDYSNQSVEDLLLQGNGTAGGNILVGGAASPMAQSVSQSPAQHDVYTVTEAPDSHVQEVPNSPPYYEEQNVLTTPMVREQEQQKRQQLKENNKLRRQAGDVILDAGDILVDSSSPKAQRTSIQHSTQPDVMVQPMIIKSEPENSSGLMDLMTPANDLYSVNFISEDMPTDIFEDALLPDGVEEAAKLDQQQKFGQSTVSSGKFASNFDVPTNSTLLDANQASTSKAAAKAQASEEEGMAVAKYSGAENGNNRDTNNSQLLRMASVDELHGHLESMQDELETLKDLLRGDGVAIDQNMLMGLFNDSDLMDNYGLSFPNDSISSEKKAPSGSELISYQPMYDLSDILDTDDGNNDQEASRRQMQTQSSVLNTPRHEL
notes: heat shock factor (Hsf), the Drosophila Hsf1 homologue; The methods say C-terminal 6xHis tagging in pDEST17, while the label 6xHis-Hsf puts the tag first; as far as I recall pDEST17 adds an N-terminal His tag; also called heat shock factor; source: E. coli, purified (HisPur Cobalt Resin or Ni-NTA beads); not shown: 6xHis, C-terminal, kept

Key:
Assay in all cases: pull-down; GST-6xHis pull-down: GST-tagged baits immobilised on glutathione beads, purified 6xHis-tagged preys; 50 mM Hepes pH 7.5, 150 mM NaCl, 2 mM MgCl2, 1 mM EGTA, 1 mM DTT, 0.1% Triton X-100, 0.5 mg/ml BSA; 1.5 h at 4°C; western blot
Conditions in all cases: both partners purified
6xHis-Hsf = biological target: B4
GST-Med15 = biological target: T1, GST-Med15 (Drosophila melanogaster, UniProt Q9Y149 1-749)
T1 construct: Med15, Drosophila Mediator subunit; CDS amplified with the primers Med15 pGex6P-1 Fw/Rev (start to stop codon) and cloned into pGex6P-1; source: E. coli SixPack, purified on Glutathione Sepharose 4B, kept on the beads; not shown: GST, N-terminal, kept
T1 sequence (looked up): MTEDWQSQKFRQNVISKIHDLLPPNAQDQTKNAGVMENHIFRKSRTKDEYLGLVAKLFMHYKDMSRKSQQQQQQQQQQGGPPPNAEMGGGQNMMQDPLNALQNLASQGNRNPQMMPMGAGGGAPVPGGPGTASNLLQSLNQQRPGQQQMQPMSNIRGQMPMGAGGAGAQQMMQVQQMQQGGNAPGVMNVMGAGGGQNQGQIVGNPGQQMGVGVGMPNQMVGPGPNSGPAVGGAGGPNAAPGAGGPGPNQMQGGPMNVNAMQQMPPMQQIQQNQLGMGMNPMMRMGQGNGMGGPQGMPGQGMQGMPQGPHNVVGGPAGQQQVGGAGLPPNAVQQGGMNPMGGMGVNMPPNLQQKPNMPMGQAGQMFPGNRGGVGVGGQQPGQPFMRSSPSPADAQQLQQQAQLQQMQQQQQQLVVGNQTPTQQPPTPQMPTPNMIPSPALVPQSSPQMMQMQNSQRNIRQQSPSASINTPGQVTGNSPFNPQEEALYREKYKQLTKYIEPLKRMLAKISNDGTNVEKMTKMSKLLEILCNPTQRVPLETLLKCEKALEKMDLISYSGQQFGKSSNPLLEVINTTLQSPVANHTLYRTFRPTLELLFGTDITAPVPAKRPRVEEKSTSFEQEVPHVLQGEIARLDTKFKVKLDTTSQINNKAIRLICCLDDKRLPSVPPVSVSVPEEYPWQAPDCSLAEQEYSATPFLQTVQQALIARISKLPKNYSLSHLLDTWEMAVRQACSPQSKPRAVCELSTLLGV

GST-Med17 = biological target: B1

Binder: B1
- binding result (6xHis-Hsf): binds

Binder: B2
- binding result (GST-Med15): binds
- binding result (GST-Med17): binds

Binder: B3
- binding result (6xHis-Hsf): binds

Binder: B4
- binding result (GST-Med15): binds
